The values that follow come from paper PMC11316256.

Test [1] deals with CD177 (allele 263K431G) on 293 cells (human) (UniProt Q8N6Q3). In words: bead-rosette formation; hIgG coupled to M-450 Epoxy Dynabeads, mixed with 293 cells at 3.5 beads per cell; beads on cells with two or more beads counted from one hundred random cells.
Test [2] has the same target.
Test [3] has as its target CD177 (allele 263K431R) on 293 cells (human) (UniProt Q8N6Q3).

CD177 (allele 263K431G) on 293 cells (human), sequence (Q8N6Q3 22-408): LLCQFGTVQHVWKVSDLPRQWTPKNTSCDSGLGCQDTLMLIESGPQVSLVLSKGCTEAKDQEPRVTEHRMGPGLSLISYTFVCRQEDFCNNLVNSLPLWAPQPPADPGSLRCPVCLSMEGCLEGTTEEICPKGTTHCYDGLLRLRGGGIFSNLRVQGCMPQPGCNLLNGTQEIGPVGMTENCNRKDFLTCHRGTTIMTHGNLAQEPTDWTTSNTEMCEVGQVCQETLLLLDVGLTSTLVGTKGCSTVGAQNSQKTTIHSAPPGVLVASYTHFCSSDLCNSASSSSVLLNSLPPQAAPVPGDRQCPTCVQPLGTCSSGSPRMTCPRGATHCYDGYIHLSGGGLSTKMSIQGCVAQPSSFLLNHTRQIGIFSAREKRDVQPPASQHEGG
CD177 (allele 263K431R) on 293 cells (human), sequence (Q8N6Q3 22-408): as above

Regarding Human serum IgG (hIgG) (antibody), the bound beads per 100 cells (beads per 100 cells) in test [1] turned out to be 123. In turn, Trastuzumab/Herceptin (antibody) returned an ADCC (% specific release) of NK-92 cells expressing the CD177-263K431G allele against SKOV-3 cells with trastuzumab 5 μg/ml, E:T 20:1 in test [2] of 8.93%. This substance gave an ADCC (% specific release) of NK-92 cells expressing the CD177-263K431R allele against SKOV-3 cells with trastuzumab 5 μg/ml, E:T 20:1; failed to mediate ADCC in test [3] of 0.11%.
